In patent US20230235011A1:

Legend:
[1] = target: recombinant human CD28 (human) (UniProt P10747); experiment: ELISA; CD28 coated at 100 ng/ml, fusion protein titrated, anti-human IgG Fc-HRP
VEGF165 = VEGF165 (UniProt P15692); experiment: SPR (Biacore T100, 25 C); binder captured on anti-human IgG CM5 chip, VEGF165 as analyte
Sequence of VEGF165 (P15692 other isoform, or with tags, fused parts or gaps limits assumed): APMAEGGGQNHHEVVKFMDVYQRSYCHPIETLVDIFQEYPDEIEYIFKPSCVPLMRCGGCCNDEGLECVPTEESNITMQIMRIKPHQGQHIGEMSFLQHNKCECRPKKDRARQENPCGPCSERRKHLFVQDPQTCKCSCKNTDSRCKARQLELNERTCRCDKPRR

Sequence of control protein 301-8 (aflibercept) (Fc fusion) (chain): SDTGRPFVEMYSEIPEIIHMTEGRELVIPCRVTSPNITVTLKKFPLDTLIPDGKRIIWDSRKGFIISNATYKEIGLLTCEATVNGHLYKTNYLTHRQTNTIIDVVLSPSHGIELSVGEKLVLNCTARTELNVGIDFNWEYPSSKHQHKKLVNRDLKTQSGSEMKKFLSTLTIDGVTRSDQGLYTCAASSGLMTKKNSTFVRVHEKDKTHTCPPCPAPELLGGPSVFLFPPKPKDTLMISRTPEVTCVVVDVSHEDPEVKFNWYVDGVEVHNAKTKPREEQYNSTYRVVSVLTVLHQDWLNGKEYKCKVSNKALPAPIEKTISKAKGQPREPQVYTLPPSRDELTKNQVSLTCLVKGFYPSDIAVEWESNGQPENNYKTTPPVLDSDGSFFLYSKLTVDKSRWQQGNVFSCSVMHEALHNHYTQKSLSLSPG
Sequence of fusion protein BY24.23 (hCD80-Fc, IgG4) (Fc fusion) (chain): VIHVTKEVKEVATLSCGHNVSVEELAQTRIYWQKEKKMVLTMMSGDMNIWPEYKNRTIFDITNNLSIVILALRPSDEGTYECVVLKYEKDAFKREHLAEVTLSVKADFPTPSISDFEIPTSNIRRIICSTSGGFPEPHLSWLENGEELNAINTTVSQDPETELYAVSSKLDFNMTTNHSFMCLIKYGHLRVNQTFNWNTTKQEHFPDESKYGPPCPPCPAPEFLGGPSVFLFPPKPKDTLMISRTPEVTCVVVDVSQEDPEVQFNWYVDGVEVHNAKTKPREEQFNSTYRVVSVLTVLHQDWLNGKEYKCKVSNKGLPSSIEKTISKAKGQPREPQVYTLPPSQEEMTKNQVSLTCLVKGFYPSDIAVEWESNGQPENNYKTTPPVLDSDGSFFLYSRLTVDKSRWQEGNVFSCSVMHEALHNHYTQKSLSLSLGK
Sequence of fusion protein BY24.30 (Fc-hCD80, IgG4) (Fc fusion) (chain): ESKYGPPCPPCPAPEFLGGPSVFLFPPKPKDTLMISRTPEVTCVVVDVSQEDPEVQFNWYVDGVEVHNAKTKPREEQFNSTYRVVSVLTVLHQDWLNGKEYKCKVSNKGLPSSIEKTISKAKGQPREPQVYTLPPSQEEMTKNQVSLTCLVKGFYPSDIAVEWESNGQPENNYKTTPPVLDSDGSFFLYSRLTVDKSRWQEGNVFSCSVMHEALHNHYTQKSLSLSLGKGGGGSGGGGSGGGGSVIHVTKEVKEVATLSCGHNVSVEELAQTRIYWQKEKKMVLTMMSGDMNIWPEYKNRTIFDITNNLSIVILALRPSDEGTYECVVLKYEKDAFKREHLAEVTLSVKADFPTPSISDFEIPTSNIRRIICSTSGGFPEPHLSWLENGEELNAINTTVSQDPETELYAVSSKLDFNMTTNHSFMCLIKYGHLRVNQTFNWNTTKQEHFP

EC50 [1] [µg/mL] | Kd (VEGF165) [pM] | koff (VEGF165) [s⁻¹] | kon (VEGF165) [M⁻¹ s⁻¹] | Substance
0.97 | – | – | – | fusion protein BY24.30 (Fc-hCD80, IgG4) (Fc fusion)
6.2 | – | – | – | fusion protein BY24.23 (hCD80-Fc, IgG4) (Fc fusion)
– | 7.35 | 4.33e-05 | 5.89e+06 | control protein 301-8 (aflibercept) (Fc fusion)
